{"source": "paper PMC4996947", "about": "“Rapid α-oligomer formation mediated by the Aβ C terminus initiates an amyloid assembly pathway” (Nature Communications, 2016)", "key": {"[1]": {"test": "Segmental HX-MS of the C-terminal pepsin fragment (35–42/35–40) of mature fibrils", "type": "physicochemical", "conditions": "mature amyloid fibrils, pepsin cleavage between Leu34 and Met35", "from_the_text": "According to our hypothesis and designs of the peptide models, we expected the Aβ segments of the hybrid peptides to not be involved in amyloid core formation. […] Since the typical α-helix band in FTIR overlaps the characteristic polyQ amyloid band at ∼1,657 cm^−1 (ref. [23]), it is not expected that we might observe any α-helical structure in these fibrils that might be analogous to the HTT^NT α-helix in HTT exon1 fibrils. To address whether a portion of the Aβ segment might be involved in stable β-structure in the fibrils, we used hydrogen–deuterium exchange evaluated by mass spectrometry (HX-MS). […] The absence of a large amount of β-structure within the Aβ segment of the polyQ-Aβ hybrid fibrils is consistent with the total β-structure content of about 50% seen in the CD spectra of the final amyloid suspensions (Figs 2j, 3h and 4j) of peptides containing about 50% Gln residues. […]\nAll HX-MS data were analysed using an Agilent 1100 series single quadruple ESI mass spectrometer. Aggregates were washed and incubated in D2O and the exchange reactions analysed after an appropriate exchange time. Global HX was analysed by simultaneous dissolution and MS analysis of the exchange reaction using a T-tube front end to the MS[62]; data were not corrected for back-exchange. […]"}, "Aβ42 aggregates": {"target": "T1, Aβ42 aggregates (Homo sapiens, UniProt P05067)", "T1 construct": "purchased Keck Center (Keck Biotechnology Center at Yale University); obtained pre-purified", "T1 sequence (P05067 672-713)": "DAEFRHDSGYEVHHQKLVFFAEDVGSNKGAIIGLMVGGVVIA", "test": "Global hydrogen–deuterium exchange mass spectrometry (HX-MS) of aggregates", "type": "physicochemical", "conditions": "for Global HX incorporation: not corrected for back-exchange", "method": "All HX-MS data were analysed using an Agilent 1100 series single quadruple ESI mass spectrometer. Aggregates were washed and incubated in D2O and the exchange reactions analysed after an appropriate exchange time. Global HX was analysed by simultaneous dissolution and MS analysis of the exchange reaction using a T-tube front end to the MS[62]; data were not corrected for back-exchange. Segmental exchange was performed as described. Briefly, fibrils were recovered from the exchange reaction by centrifugation (20,800g, 30 min), and in a 4 °C room to 20 μl ice-cold 8 M Gdn.HCl plus 0.1% formic acid was added to the pellets and mixed for 10 s, then 100 μl pepsin agarose (Sigma-Aldrich) in 0.1% cold formic acid was added and mixed for 10 s. The sample was immediately centrifuged to remove the immobilized pepsin (20,800g, 30 s) and the supernatant subjected to 4 °C LC-MS analysis."}, "[2]": {"conditions": "cited from earlier work", "method": "Table 1 Amyloid nucleation and stabilization data. | column: Cr (μM) || We also addressed whether the Aβ appendages of these hybrid peptides provide any additional stability to the Q23 amyloid cores, in analogy to the stabilizing effect of HTT^NT on HTT exon1 amyloid. Stabilities were assessed by determining the concentration of monomer present when the amyloid assembly reaction reaches equilibrium (Supplementary Fig. 5)[41]. […] The results (Table 1) indicate some interesting trends."}, "[3]": {"test": "Spontaneous aggregation kinetics by sedimentation-HPLC assay (disappearance of monomer)", "type": "physicochemical", "conditions": "22 μM start, after 35 days, PBS, 37 °C", "quoted_text": "Disaggregated peptide stock solutions were first checked for approximate concentration. All concentrations, for setting up the reaction and for assaying kinetics time points, were determined from integrated A214 HPLC (Agilent XDB-C18 4.6 × 50 mm column) peaks using standard curves individually constructed for each peptide from standard stock solutions calibrated via the A215 absorption[23][41]. […] Sodium azide was added to 0.05% (w/v) and pH adjusted to 7.4. After filtration through a 0.2 μm filter unit (Anotop 10) to get rid of aggregates, the solution was held at 4 °C while the t=0 concentration was determined (∼30 min). The reaction mixture was moved to 37 °C and kinetics monitored by the sedimentation and ThT assays on reaction aliquots and by CD.\nDuplicate time points were removed periodically, centrifuged 30 min at 436,000g followed by HPLC analysis of monomer concentration from the carefully removed supernatant[41].\nFor sedimentation and ThT kinetics, as well as kinetics underlying the n* and Cr determinations and inhibition kinetics studies, each plotted data point is derived from analysis of 2–3 independent reaction aliquots. Each aggregation study was independently carried out twice, with similar results obtained."}}, "note": "Several values for one entry are separate records, joined by “and”; a condition that tells them apart may be missing. Identical values can stand only once. Ends that are not written are not given here.", "data": [{"substance": "Aβ42: full-length Aβ peptide ending at residue 42", "values": [{"measurement": "Exchange of the C-terminal 35–42/35–40 fragment after exposure of fibrils to D2O", "setting": "[1]", "value": "resists exchange"}, {"measurement": "Global HX incorporation", "setting": "Aβ42 aggregates; Aβ42 aggregated alone", "value": "14.8±1.2", "unit": "deuteriums"}, {"measurement": "Global HX incorporation", "setting": "Aβ42 aggregates; Aβ42 aggregates grown in the presence of K10G2Aβ31–42", "value": "25.6±1.2", "unit": "deuteriums"}, {"measurement": "Newly unprotected amide hydrogens", "setting": "Aβ42 aggregates; Aβ42 aggregates grown with K10G2Aβ31–42 vs Aβ42 alone", "value": "~11"}, {"measurement": "Cr of fibrils", "setting": "[2]", "value": "0.11 ± 0.01 µM and 0.11 µM"}]}, {"substance": "KKKKKKKKKKGGIIGLMVGGVVIA [K10G2Aβ31–42]", "values": [{"measurement": "Monomer remaining in the reaction mixture", "setting": "[3]", "value": "~13", "unit": "µM"}]}, {"substance": "H-KKQQQQQQQQQQQQQQQQQQQQQQQKKAIIGLMVGGVVIA-OH", "values": [{"measurement": "fraction of reaction mixture sedimentable at early time", "value": 15, "unit": "%"}]}, {"substance": "Aβ40: full-length Aβ peptide ending at residue 40", "values": [{"measurement": "Exchange of the C-terminal 35–42/35–40 fragment after exposure of fibrils to D2O", "setting": "[1]", "value": "essentially fully exchanged"}, {"measurement": "Cr of fibrils", "setting": "[2]", "value": "1.06 ± 0.18", "unit": "µM"}]}]}
